The RNAGym collection of RNA variant scans (doi:10.1073/pnas.2313332121)

B1: TPR t1 (parent)
chain: GACCAAUCUGCCCUCAGAGCUCGAGAACAUCUUCGGAUGCAGAGGAGGCAGGCUUCGGUGGCGCGAUAGCGCCAACGUCCUCAACCUCCAAUGCAUCCCACCACAUGAUGAUGCCUGAAGAGCCUUGGUUUUUUG

Variants of: B1
Test: polymerase ribozyme fitness, log enrichment relative to wild type (log ratio); higher = more active; in vitro selection for triplet polymerase activity
Procedure, shortened: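 Frozen incubation at −7 °C formed the core of a single, triplicate in vitro selection round applied to PCR-built, transcribed mutant libraries of each subunit of a heterodimeric triplet polymerase ribozyme. Extended constructs were gel-excised, captured with streptavidin beads and amplified by RT-PCR, and input and output libraries were Illumina-sequenced with a filter of ≥10 input reads and ≥1 read per output. Fitness is the logarithm of genotype enrichment relative to wild-type enrichment, with inverse-variance-weighted replicate averaging, and the logarithm is base 2.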

Row | Variant | polymerase ribozyme fitness (log ratio)
1 | GACCAAUCUGACCUCAGAGCUCGAGAACACCUUCGGAUGCAGAGGAGGCAGGCUUCGGUGGCUUGAUAGCGCCAACGUCCACAACCUCCAAUGCAUCCCACCAGAUGAUGUUGCCUGAGGAGCCUUGGUUUCUUG [C11A U30C G63U C64U U81A C104G A111U A119G U132C] | -6.95
2 | GACCAAUCUGCCUUCAGAGCUCGAGAACAUCUUUGGAUGCAGAGGAGGCAGCCUUCGGUGGCGCGAUAGCGCCAACGUCCUCAACCUCCAAUGCAUCCCACCACAUGAUGAUGCCUGAAGAGCCUUGGUUUUUUG [C13U C34U G52C] | -4.17
3 | GAGCAAUCUGCCCUCAGAGCUCGAGAACAUCUUCGGAUGCAGAGGAGGCAGGCUUCGGUGGCCCGAUAGCGCCAACGUCCUCAACCUCCAAUGCAUCCCACCACAUGAUGAUGCCUGAAGAGCCUUGGUUUUUUG [C3G G63C] | -2.64
4 | GACCAAUCUGCCCUCAGAGCUCGAGAACAUCUUCGGAUGCAGAGGAGGCAGUCUUAGGUGGCGCGAUAGCGCCAACGUCCUCAACCUCCAAUGCAUCCCACAACAUGAUGAUGCCUGAAGAGCCUUGGUUUUUUG [G52U C56A C102A] | -2.74
5 | GACCAAUCUGCCCUCAGAGCUCGAGAACAUCUUCGGAUGCAGAGUAGGCAGGCUUCGGUGGCGCGAUAGCGCCAACGUCCUCAACCUCCAAUGCAUCCCACCACAUGAUGAUGCCUGAAGAGCCUUGGGUUUUUG [G45U U129G] | -2.58
6 | GACCAAUCUGCACUCAGAGCUUGAGAACAUCUUCGGAUGCAGAGUAGGUAGGCUUCGGUGGCGCGAUCGCGCCAACGUCCUCAACCUCCAAUGCAUCCCACCACAUGAUGAUGCCUGAAUAGCCUUGGUUUUUUG [C12A C22U G45U C49U A68C G120U] | -7.43
7 | GACCAAUCUACCCUCAGAGCUCGAGAACAUCUUCGGAUGCAGAGGAGGCAGGCUUCGGUGGCGCGAUAGCGCCAACGUCCUCAACCUCCAAUGCAUCCCACCACAUGAUGAUGCCUCAAGAGCCUUGGUUUUUUG [G10A G117C] | -4.43
8 | GACCAAUCUGCCCUCAGAGCUCGAGAACAUCUUCGGAUGGAGAGGAGGCAGGCUUCAGUGUCGCGAUAGCGCCAACGUCCUCAACCUCCAAUGCAUCCCACCACAUGAUGAUACCUGAAGGACCUUGGUUUUUUG [C40G G57A G61U G113A A121G G122A] | -2.96
9 | GACCAAUCUGCCCUCAGAGCUCGAGAACAUCUUCGGAUGCAGAGGAUGCAGGCUUCGGUGGCGCGAUAGCGCCAACGUCCUCAACCUCCAAUGCAUCCCACCACAUGAUGGUGCCUGAAGAGCCUUGGUUUUUUG [G47U A111G] | -0.984
10 | GACCAAUCUGCCCUCAGAGCUCGAGAAGAUCUUCGGAUGCAGAGGAGGCAGGCUUGGGUGACGCGAUAGCGCCAACAUCCUCAACCUCCAAUGCAUCCCACCACAUGAUGAUGCCUGAAGAGCCUUGGUUUUUUG [C28G C56G G61A G77A] | -2.42
11 | GACCAAUCUGCCAUCAGAGCUCGAGAACAUCUUCGGAUGCAGAGGAGGCAGGCUUCGGUGGCGCGAUAGCGCAAACGUCCUCAACCUCCAAUGCAUCCCACCACAUGAUGAUGCCUGAAGAGCCUUGGUUUUUUG [C13A C73A] | -1.36
12 | GACCAAUCUGCCCUCAGAGCUCGAGAACAUCUUCGUAUGCAGAGGAGACAGGCUUCGGUGGCGCGAUAGCGUCAACGUCCUCAACCUCCAAUGCAUCCCACCACAUGAUGAUGCCUGAAGAGCCUUGGUUUUUUG [G36U G48A C72U] | -1.42
13 | GACCAAUCUGCCCUCAGAGCUCGAGAACAUCUUCGGAUGCAGAAGAGUCAGGCUUCGGUGGCGCGAUAGCGCCAACGUCCUCAACCUCCAAUGCAUCCCACCACAUGAUGAUGCCUGAAGAGCCGUGGUUUUUUG [G44A G48U U125G] | -2.23
14 | GACCAAUCUGCCCUCAGAGCUCGAGAACAUCUUCGGAUGCAGAGGAGGCAGGCUUCGGUGGCGCGAUAGCGCCAACGUCCUCAACCUCCAAUGCAUCCCACCUCAUGAUGAUGCCUGAAGAGCCUUGGUUUUUUG [A103U] | -4.71
15 | GACCAAUCUGCCCUCAGAGCUCGAGAACAUCUUCGGAUGCAGAGGAGGCAGGCUUCGGUGGCGCGAUAGCGUCAACGUCCUCAACCUCCAAUGCAUCCCACCACAUGAUGAUGCGUGAAGAGCCUUGGUUUUUUG [C72U C115G] | -2.33
16 | GACCAAUCUGCCCUCAGAGCUCGAGAACAUCUUCGGAUGCAGAGGAGGCAGGCUUCGGUGGCGCGAUAGCGCCAACGUCCUCAACUUCCAAUGCAUCCCAGCACAUGAUGAUGCCUGAAGAGCCUUGGUUUUUUG [C86U C101G] | -2.55
17 | GACCGAUCUGCCCACAGAGCUCGAGAACAUCUUCGGAUGCAGAGGAGGCAGGCUUCGGUGGCGCGAUAGCGCCAACGUCCUCAACCUCCAAUGCAUCCCACCACAUGAUGAUGCCUGAAGAGCCUUGGUUUUUUG [A5G U14A] | -1.75
18 | GACCAAUCUGCCCUCAGAGCUCGAGAACAUCUUCGGAUGCAGAGGUGGCAGGCUUCGGUGGCGCGAUAGCGCCAACGUCCCCAACCUCCAAUGCAUCCCAGCACAUGAUGAUGCCUGAAGAGCCUUGGUUUUUUG [A46U U81C C101G] | -4.31
19 | GACCAAUCUGCCCUCAGAGCUCGAGAACAUCUUCGGAUGCAGAGGAGACAGGCUUCGGUGUCGCGAUAGCGCCAACGUCCUCAACCUCCAAUGCAUCCCACCACAUGAUGAAGCCUGAAGAGCCGUCGUUUUUUG [G48A G61U U112A U125G G127C] | -0.619
20 | GACCAAUCUGCCCUCAGAGCUCGAGAACAUCUUCGGAUGCAUAGGAGGCAGGCUUCGGUGGCGCGAUAGCGCCAACGUCCUCAACCUCCAAUGCACCCCACCACAUGAUGAUGCCUGAAGAGCCUUGGUUUUUUG [G42U U96C] | -1.58
21 | GACCAAUCUGCCCUCAGAGCUCGAGAACAUCUUCAGAUGCAGAGGAGGCAGGCUUCGGUGGCGCGAUAGCGCCAACGUCCUCAACCUCCAAUGCAUCCCACCACAUGAUGAUGCCUGAAGAGCCUUGGUUCUUUG [G35A U131C] | -6.04
